Results as given in patent US20260053961A1, “HETERODIMER AND RADIOACTIVE MEDICAL USE THEREOF” (HEXIN (SUZHOU) PHARMACEUTICAL TECHNOLOGY CO., LTD., priority 2022, published 2026).

Assays:
[1] = Stability study: in vitro incubation at constant temperature (37° C.) in murine plasma, LC-MS/MS; type: in vitro ADME
Protocol: (§1) The experiment was carried out by using an in vitro incubation method at a constant temperature (37° C.) to study the stability of the compound ([…]) from Example L11 in murine plasma or PBS. The compound obtained from Example L11 was dissolved in 1 mL of mouse serum, respectively, and incubated in vitro at a constant temperature for 0 h, 0.5 h, 1 h, 4 h, 24 h, and 48 h, and a percentage of drug remaining was then measured and determined. PBS was used as a negative control group. Peak areas of the drug and an internal standard were measured using an LC-MS/MS method, and ratios of the peaks were used instead of the drug concentration for calculation.

[2] = Stability study: in vitro incubation at constant temperature (37° C.) in PBS, LC-MS/MS; type: physicochemical
Protocol: as §1

[3] = PET/CT imaging of ^68Ga complexes in small animals; type: in vivo, NCr nude mice; conditions: NCr nude, mouse, in vivo, iv, 100 uCi, total radioactivity
Protocol: (§2) BxPC3 human pancreatic cancer cells are suspended in a mixture of 200 μL phosphate buffer and matrix gel (v/v, 1/1), and 2×10^6 cells were implanted subcutaneously into left shoulders of normal NCr nude mice (18-25 g, 4-6 weeks old). After an average of 1.5 weeks, a tumor diameter reached about 10 mm, which was sufficient for biodistribution and single-photon emission computed tomography-computed tomography (SPECT/CT) imaging studies.
(§3) PET-CT and image analysis were performed using a small-animal NovelMedcal PET-CT scanner (Beijing Yongxin). Maximum tangential and radial half-widths of the scanner in a center of field of view were 1.5 mm, and at an edge of the field of view were 1.8 mm.
(§4) About 100 μCi of each of the following complexes: ^68Ga-L00, ^68Ga-L11, ^68Ga-L12, ^68Ga-L13, and ^68Ga-L21, was injected into BxPC3 tumor-bearing mice via tail vein under isoflurane anesthesia, and each of the complexes was injected into four mice. Static PET-CT images were obtained for 15 min 0.5, 1, 2, 3, 4, 5 and 6 hours after intravenous injection. Distribution patterns of the five complexes at each time point were compared.
(§5) PET and CT images were acquired using NMSoft workstation software (Beijing Yongxin), and data were given as a percentage of injected dose per gram of tissue or organ (ID/g), and were determined through decay correction for each sample (standardized to a known weight of the injected dose. Normalization was performed during statistical analysis, and standardized uptake values (SUVs) were calculated according to the following formula: […]

BxPC3 tumor-bearing mice = test: PET/CT imaging of ^68Ga complexes in small animals; type: in vivo, NCr nude mice
Protocol: as §2, §3, §4, §5

Question: For `C[C@@H](O)[C@@H]1NC(=O)[C@H](CCCNC(=N)N)NC(=O)CNC(=O)[C@H](CC(N)=O)NC(=O)[C@H](Cc2ccc(O)cc2)NC(=O)[C@H](CCCCNC(=O)CCOCCOCCOCCOCCNC(=O)OCC2C3CCc4nnn(CCC(C(=O)N[C@@H](CCCCNC(=O)CCC(=O)N[C@@H](CCCCNC(=O)CCCc5ccc(C(F)(F)F)cc5)C(=O)O)C(=O)NCCOCCOCCOCCOCCC(=O)NCCCC[C@@H]5NC(=O)[C@@H](Cc6ccccc6)NC(=O)[C@H](CC(=O)O)NC(=O)CNC(=O)[C@H](CCCNC(=N)N)NC5=O)N5CCN(CC(=O)O)CCN(CC(=O)O)CCN(CC(=O)O)CC5)c4CCC32)NC1=O` (single isomer, unassigned) [Example L11, RGD-PEG4-Lys (—R—R1)-DOTA-click-PEG4-NGR], which remaining at 0.5 h, 1 g/mL ([1]; mouse, mouse plasma, murine plasma, 37° C., 0.5 h, read-out: Percentage of drug remaining) is on record?
Answer: 98.5%

Question: And the remaining at 1 h, 1 g/mL ([1]; mouse, mouse plasma, murine plasma, 37° C., 1 h, read-out: Percentage of drug remaining)?
Answer: 98.4%

Question: And the remaining at 4 h, 1 g/mL ([1]; mouse, mouse plasma, murine plasma, 37° C., 4 h, read-out: Percentage of drug remaining)?
Answer: 98%

Question: And the remaining at 24 h, 1 g/mL ([1]; mouse, mouse plasma, murine plasma, 37° C., 24 h, read-out: Percentage of drug remaining)?
Answer: 93.4%

Question: And the remaining at 48 h, 1 g/mL ([1]; mouse, mouse plasma, murine plasma, 37° C., 48 h, read-out: Percentage of drug remaining)?
Answer: 86.5%

Question: What about the “Percentage of drug remaining (summary statement)” value ([1]; murine plasma or PBS, in vitro incubation at constant temperature, over the study) of the same molecule?
Answer: above 95%

Question: And the “Percentage of drug remaining” value ([1]; murine plasma, 37° C., 0 h)?
Answer: 100%

Question: What about the “Percentage of drug remaining” value ([2]; 0 h) of the same molecule?
Answer: 100%

Question: What about the remaining at 0.5 h, 1 g/mL ([2]; 0.5 h, read-out: Percentage of drug remaining) of the same molecule?
Answer: 99.3%

Question: What about the remaining at 1 h, 1 g/mL ([2]; 1 h, read-out: Percentage of drug remaining) of the same molecule?
Answer: 98.7%

Question: And the remaining at 4 h, 1 g/mL ([2]; 4 h, read-out: Percentage of drug remaining)?
Answer: 98.6%

Question: And the remaining at 24 h, 1 g/mL ([2]; 24 h, read-out: Percentage of drug remaining)?
Answer: 98.3%

Question: And the remaining at 48 h, 1 g/mL ([2]; 48 h, read-out: Percentage of drug remaining)?
Answer: 97.9%

Question: Which tissue to tissue ratio at 6 h ([3]; about 6 hours after the injection, PET/CT, read-out: tumor-to-kidney ratio) does the source give for `C[C@@H](O)[C@@H]1NC(=O)[C@H](CCCNC(=N)N)NC(=O)CNC(=O)[C@H](CC(N)=O)NC(=O)[C@H](Cc2ccc(O)cc2)NC(=O)[C@H](CCCCNC(=O)CCOCCOCCOCCOCCNC(=O)OCC2C3CCc4nnn(CCC(C(=O)N[C@@H](CCCCNC(=O)CCC(=O)N[C@@H](CCCCNC(=O)CCCc5ccc(C(F)(F)F)cc5)C(=O)O)C(=O)NCCOCCOCCOCCOCCC(=O)NCCCC[C@@H]5NC(=O)[C@@H](Cc6ccccc6)NC(=O)[C@H](CC(=O)O)NC(=O)CNC(=O)[C@H](CCCNC(=N)N)NC5=O)N5CCN(CC(=O)O)CCN(CC(=O)O)CCN(CC(=O)O)CC5)c4CCC32)NC1=O` (single isomer, unassigned) [^68Ga-L11, metal not drawn] here?
Answer: ~1.4

Question: What about the “tumor-to-kidney ratio, rank among the five complexes” value (BxPC3 tumor-bearing mice; MIP images and ROI regions) of the same molecule?
Answer: highest among the five conjugates

Question: What about the “tumor-to-muscle ratio, rank among the five complexes” value (BxPC3 tumor-bearing mice; MIP images and ROI regions) of the same molecule?
Answer: highest among the five conjugates

Question: For `C[C@@H](O)[C@@H]1NC(=O)[C@H](CCCNC(=N)N)NC(=O)CNC(=O)[C@H](CC(N)=O)NC(=O)[C@H](Cc2ccc(O)cc2)NC(=O)[C@H](CCCCNC(=O)CCOCCOCCOCCOCCNC(=O)OCC2C3CCc4nnn(CCC(C(=O)N[C@@H](CCCCNC(=O)CCC(=O)N[C@@H](CCCCN)C(=O)O)C(=O)NCCOCCOCCOCCOCCC(=O)NCCCC[C@@H]5NC(=O)[C@@H](Cc6ccccc6)NC(=O)[C@H](CC(=O)O)NC(=O)CNC(=O)[C@H](CCCNC(=N)N)NC5=O)N5CCN(CC(=O)O)CCN(CC(=O)O)CCN(CC(=O)O)CC5)c4CCC32)NC1=O` (stereo partly shown) [^68Ga-L00, metal not drawn], which tissue to tissue ratio at 2 h [3] is on record?
Answer: ~0.18

Question: And the “clearance of the drug” value (BxPC3 tumor-bearing mice; mouse, in vivo)?
Answer: rapidly metabolized through the kidneys

Question: What about the “signals in the tumor tissue over time” value (BxPC3 tumor-bearing mice; mouse, in vivo, iv) of the same molecule?
Answer: gradually weakened
